Test results published in patent US20250188457A1, “COMPOSITIONS AND METHODS FOR THE TREATMENT OF GLIOBLASTOMA BY INHIBITION OF THE TFPI2-CD51-STAT6 SIGNALING AXIS” (Northwestern University, priority 2023, published 2025).
Each block holds one molecule with its values, some of them ahead of it.

Columns and labels:
[1] = tested on: CT2A cells and GSC272 cells; assay: T cell-mediated cytotoxicity assay (LDH release); format: cell-based, human and mouse; details: TFPI2 recombinant protein 20 ng/ml; AS1517499 25 nM
Description: T cell-mediated cytotoxicity was determined by Cytotox96 non-radioactive cytotoxicity assay kit (Promega, #G1780) based on the release of lactate dehydrogenase (LDH). After expansion and activation, mouse primary CD8^+ T cells or human JURKAT T cells were collected. About 10^5 T cells were co-cultured with SIM-A9 microglia or PrhMG (1:1 ratio) treated with TFPI2 recombinant protein in the presence or absence of STAT6 inhibitor AS1517499 for 24 hrs. T cells (effector cells) were then collected for further co-culturing with CT2A cells or GSC272 cells (target cells) at different ratios (10000:1000, 5000:1000, 2500:1000, 1250:1000, 620:1000, 310:1000, 160:1000, 80:1000, 40:1000, 20:1000) for 5 hrs. Experimental groups and corresponding control groups, including effector cell spontaneous LDH release, target cell spontaneous LDH release, target cell maximum LDH release, volume correction control, and culture medium background control were set up following the manufacturer's instructions to evaluate T cell-mediated cytotoxicity on GSCs. Optical density (OD) was measured by a Biotek Synergy 2 SL Microplate Reader. The cytotoxicity was calculated by the formula: (experimental OD value-effector spontaneous OD value-target spontaneous OD value)/(target maximum OD value-target spontaneous OD value).

[2] = tested on: GSC23 and GSC262 cells; assay: Tumorsphere formation assay (GSC self-renewal); format: cell-based, human; details: GSC262 and GSC23; indicated concentrations
Description: The tumorsphere formation assay was performed (Ref. 79; incorporated by reference in its entirety). GSCs were treated with different concentrations of recombinant TFPI2 protein for 24 hrs with or without inhibition of JNK or STAT3, or modified with TFPI21 KO, knockdown or overexpression. After treatment or genetic modifications, cells were centrifuged at 1500 rpm for 5 min and resuspended in the plain cell culture media without additional supplements. Cells were then seeded into a 96-wells plate at 100 cells/well. The number of tumorspheres in each well was imaged and quantified after 10 days.

[3] = target: HMC3 microglia; assay: Human phospho-kinase antibody array; format: cell-based; details: 20 ng/ml TFPI2 recombinant protein
Description: After starvation for 24 hrs followed by TFPI2 recombinant protein treatment for 1 hr, HMC3 cell lysate was prepared using a lysis buffer with […]. Phosphorylation profiles of kinases were determined using Proteome Profiler Human Phospho-Kinase Array Kit (Bio-Techne, #ARY003C) as the instruction manual. Signal was detected under ChemiDoc Touch Imaging System (Bio-Rad).

[4] = target: T1, CD51 (integrin alpha V, ITGAV) on human microglia (HMC3 cell line, primary human microglia PrhMG) (human, UniProt P06756 31-1048); assay: IP-MS: membrane proteins of PrhMG incubated with TFPI2 recombinant protein, immunoprecipitated with TFPI2 antibody, LC-MS; CD51 is one of the enriched membrane protein candidates
T1 construct: whole, on cells; Endogenous protein of human microglia; also called Integrin aV/CD51
T1 sequence (P06756 31-1048): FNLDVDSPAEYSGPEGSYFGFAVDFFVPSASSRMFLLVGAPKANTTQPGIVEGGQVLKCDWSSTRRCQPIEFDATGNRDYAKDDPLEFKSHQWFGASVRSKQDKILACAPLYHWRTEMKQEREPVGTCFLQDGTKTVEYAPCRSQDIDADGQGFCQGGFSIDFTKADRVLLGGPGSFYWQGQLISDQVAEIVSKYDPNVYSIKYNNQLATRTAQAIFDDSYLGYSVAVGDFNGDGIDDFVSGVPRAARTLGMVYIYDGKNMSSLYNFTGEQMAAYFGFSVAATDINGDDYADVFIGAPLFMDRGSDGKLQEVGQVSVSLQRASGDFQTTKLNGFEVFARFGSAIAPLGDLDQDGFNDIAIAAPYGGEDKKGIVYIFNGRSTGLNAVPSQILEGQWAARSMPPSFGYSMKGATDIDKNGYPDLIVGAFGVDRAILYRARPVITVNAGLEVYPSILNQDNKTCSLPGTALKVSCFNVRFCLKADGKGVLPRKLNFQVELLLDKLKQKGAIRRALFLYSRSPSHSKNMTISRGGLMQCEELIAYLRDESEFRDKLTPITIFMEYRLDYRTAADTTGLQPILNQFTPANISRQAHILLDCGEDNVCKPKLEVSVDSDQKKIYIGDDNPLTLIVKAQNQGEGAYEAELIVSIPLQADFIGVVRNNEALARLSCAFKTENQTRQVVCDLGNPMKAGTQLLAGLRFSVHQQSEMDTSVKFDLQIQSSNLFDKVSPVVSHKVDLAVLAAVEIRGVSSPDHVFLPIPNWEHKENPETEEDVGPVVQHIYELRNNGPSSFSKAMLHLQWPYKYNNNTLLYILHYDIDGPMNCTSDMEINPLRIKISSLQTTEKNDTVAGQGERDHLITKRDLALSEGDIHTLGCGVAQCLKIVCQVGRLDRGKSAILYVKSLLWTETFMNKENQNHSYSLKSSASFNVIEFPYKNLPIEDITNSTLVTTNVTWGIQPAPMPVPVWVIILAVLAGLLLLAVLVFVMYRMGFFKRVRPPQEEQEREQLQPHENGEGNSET
Description: Permeabilized cells were centrifuged for 15 min at 16,000 g to remove the supernatant containing cytosolic proteins. The cell pellets were then incubated with 0.5 ml solubilization buffer at 4° C. for 30 min with constant mixing. Solubilized membrane and membrane-associated proteins were isolated by centrifuging at 16,000 g for 15 min at 4° C. Extracted membrane-associated proteins were proceeded for IP-MS pull-down assay. A total of […] cell membrane lysate was incubated with […] TFPI2 antibody (Abcam, #ab186747) or IgG control (Cell Signaling Technology, #2729) for 12 hrs with gentle rotation at 4° C. […] Protein A/G PLUS-Agarose (#sc-2003, Santa Cruz Biotechnology) were mixed with each sample on ice. The lysate bead mixture was incubated at 4° C. under rotary agitation for 4 hrs. The tubes were centrifuged to remove supernatant. The beads were then washed in lysis buffer three times to remove non-specific binding. After removing wash buffer, the complex was washed with pre-urea wash buffer (50 mM Tris pH 8.5, 1 mM EGTA, 75 mM KCl) to remove all residual supernatant. […] IP pulled-down samples were analyzed by LC-MS/MS using a Dionex UltiMate 3000 Rapid Separation nanoLC coupled to the Orbitrap Elite Mass Spectrometer (Thermo Fisher Scientific Inc, San Jose, CA). […]

Molecule: NC(=O)c1cnc(NCCc2ccc(O)c(Cl)c2)nc1NCc1ccccc1 [AS1517499]
suppression of T cell-mediated tumor cell cytotoxicity by TFPI2-polarized microglia [1]: rescued

kinases STAT6 and AKT in phospho-kinase array [3]: activated
fold change in TFPI2 IP group versus control IgG group [4]: ≥ 2 fold
B1: TFPI2 recombinant protein (tissue factor pathway inhibitor 2; BioVision, #7481-10) (ligand, UniProt P48307 23-235, looked up)
chain: DAAQEPTGNNAEICLLPLDYGPCRALLLRYYYDRYTQSCRQFLYGGCEGNANNFYTWEACDDACWRIEKVPKVCRLQVSVDDQCEGSTEKYFFNLSSMTCEKFFSGGCHRNRIENRFPDEATCMGFCAPKKIPSFCYSPKDEGLCSANVTRYYFNPRYRTCDAFTYTGCGGNDNNFVSREDCKRACAKALKKKKKMPKLRFASRIRKIRKKQF
notes: Bought recombinant protein added to microglia at 20 ng/ml; also called recombinant TFPI2; secreted TFPI2
GSC self-renewal (tumorspheres) upon TFPI2 recombinant protein [2]: Enhanced
